The target of experiment [1] is T1, recombinant human PD-L1-His protein (Origincell Therapeutics Co., Ltd.) (human, UniProt Q9NZQ7 19-238, limits assumed).
T1 construct: not shown: His tag
The experiment is described as follows: BLI (Octet RED384), antibody on AHC sensor, PD-L1-His in solution. For orientation: BLI is a label-free optical method that tracks binding on a fibre tip over time.

Experiment [2] addresses T2, human PD-L1 on cells (CHO cells that stably expressed human PD-L1; MDA-MB-231 cells) (human, UniProt Q9NZQ7 19-290).
T2 construct: whole, on cells; Stably expressed on CHO cells; also called CHO cells expressing human PD-L1
Description: flow cytometry on CHO cells stably expressing human PD-L1, anti-human IgG-Fc DyLight 650 detection. As for the experimental part: The mixture was mixed well and incubated at 4° C. for 1 hr. After cell washing, Goat F(ab)₂ Anti-Human IgG-Fc (DyLight 650) (ab98593, Abcam) was added and incubated at 4° C. for 30 min. After cell washing, the fluorescence intensity was detected by a flow cytometer (Intellicyt iQue Screener).

Experiment [3] has as its target T3, mouse PD-L1 on CHO cells that stably expressed mouse PD-L1 (mouse, UniProt Q9EP73 19-290).
T3 construct: whole, on cells; also called CHO cells expressing mouse PD-L1
Description: flow cytometry on CHO cells stably expressing mouse PD-L1, anti-human IgG-Fc DyLight 650 detection. As to the method:
The mixture was mixed well and incubated at 4° C. for 1 hr. After cell washing, Goat F(ab′)₂ Anti-Human IgG-Fc (DyLight 650) (ab98593) was added and incubated at 4° C. for 30 min. After cell washing, the fluorescence intensity was detected by a flow cytometer (Intellicyt iQue Screener).
On the technique in general: In flow cytometry, cells or beads pass a laser one at a time.

For experiment [4], the target named is T2, human PD-L1 on cells (CHO cells that …). The experiment is described as follows: flow cytometry competition: biotin-labelled human PD-1-Fc at a subsaturated concentration on CHO cells stably expressing human PD-L1, antibody titrated, streptavidin R-PE detection. As to the method:
(§1) After cell washing, Streptavidin R-PE Conjugate (life technology, SA10041) was added and incubated (4° C., 30 min). After cell washing, the fluorescence intensity was detected by a flow cytometer (Intellicyt iQue Screener).

Experiment [5] addresses T3, mouse PD-L1 on CHO cells that stably …. The experiment is described as follows: flow cytometry competition: biotin-labelled mouse PD-1-Fc at a subsaturated concentration on CHO cells stably expressing mouse PD-L1, antibody titrated, streptavidin R-PE detection. As for the experimental part:
as §1

Experiment [6] deals with T1, recombinant human PD-L1-His protein …. The experiment is described as follows: BLI (Octet RED384), antibody on AHC sensor, PD-L1-His in solution. As to the method:
(§2) The antigen-antibody binding kinetics were analyzed by the biofilm interference (BLI) technology, using a molecular interaction analyzer (Octet RED384, purchased from Pall ForteBio Analytics Co., Ltd.) and using a PBS buffer containing 0.1% BSA and 0.02% Tween 20. […] The AHC sensor was regenerated by glycine pulses and then reused. The obtained results would be analyzed by Octet Data Analysis 9.0 software (Pall ForteBio Analytics Co., Ltd.) to give the KD, Kₒₙ (1/Ms) and Koff (1/s).
This is another data set of the same source.

For experiment [7], the target named is T4, recombinant human CD137-His protein (Origincell Therapeutics Co., Ltd.) (human, UniProt Q07011 24-186, limits assumed).
T4 construct: also called Human 4-1BB-His; not shown: His tag
Description: BLI (Octet RED384), antibody on AHC sensor, CD137-His in solution. As to the method: as §2

Experiment [8] concerns the target T2, human PD-L1 on cells (CHO cells that …). Description: flow cytometry on MDA-MB-231 cells (human PD-L1), anti-human IgG-Fc DyLight 650 detection. As to the method:
Human breast cell strain MDA-MB-231 (Shanghai Chinese Academy of Sciences Cell Library) highly expresses the human PD-L1 molecule. […] After cell washing, Goat F(ab′)₂ Anti-Human IgG-Fc (DyLight 650) (ab98593, abcam) was added and incubated at 4° C. for 30 min. After cell washing, the fluorescence intensity was detected by a flow cytometer (Intellicyt iQue Screener).

Experiment [9] has as its target T3, mouse PD-L1 on CHO cells that stably …. The experiment is described as follows: flow cytometry competition: biotin-labelled mouse PD-1-Fc at a subsaturated concentration on CHO cells stably expressing mouse PD-L1, antibody titrated, streptavidin R-PE detection. As to the method:
as §1
The source holds these as a separate data set.

For experiment [10], the target named is T2, human PD-L1 on cells (CHO cells that …). The experiment is described as follows: flow cytometry competition: biotin-labelled human PD-1-Fc at a subsaturated concentration on CHO cells stably expressing human PD-L1, antibody titrated, streptavidin R-PE detection. As for the experimental part: as §1
The source holds these as a separate data set.

Experiment [11] concerns the target T5, recombinant human PD-L1-Fc protein (Origincell Therapeutics Co., Ltd.) (human, UniProt Q9NZQ7 19-238, limits assumed).
T5 construct: Labeled with biotin (EZ-Link Sulfo-NHS-LC-Biotin) for the BLI assays; unlabeled in the phage ELISA; also called Human PD-L1-Fc-Biotin; not shown: Fc part
Description: BLI (Octet RED384), biotinylated antigen on SA sensor, antibody in solution. As to the method: (§3) The recombinant human PD-L1-Fc protein and the recombinant mouse PD-L1-Fc were labeled with biotin (EZ-Link Sulfo-NHS-LC-Biotin, Pierce, 21327). The antigen-antibody binding kinetics were analyzed by the biofilm interference (BLI) technology, using a molecular interaction analyzer (Octet RED384, purchased from Pall ForteBio Analytics Co., Ltd.) and using a PBS buffer containing 0.1% BSA and 0.02% Tween 20. […] The obtained results would be analyzed by Octet Data Analysis 9.0 software (Pall ForteBio Analytics Co., Ltd.) to give the KD, Kₒₙ (1/Ms) and Koff (1/s).

Experiment [12] addresses T6, recombinant mouse PD-L1-Fc protein (M5251, ACROBiosystems Inc.) (mouse, UniProt Q9EP73 19-238).
T6 construct: Bought; Labeled with biotin for the BLI assays; unlabeled in the phage ELISA; also called Mouse PD-L1-Fc-Biotin; not shown: Fc part
Described as above. As to the method: as §3

Substitutions are numbered along the chain they refer to. Read-outs that look alike come from different tables or passages of the source.

T5 sequence (Q9NZQ7 19-238 limits assumed): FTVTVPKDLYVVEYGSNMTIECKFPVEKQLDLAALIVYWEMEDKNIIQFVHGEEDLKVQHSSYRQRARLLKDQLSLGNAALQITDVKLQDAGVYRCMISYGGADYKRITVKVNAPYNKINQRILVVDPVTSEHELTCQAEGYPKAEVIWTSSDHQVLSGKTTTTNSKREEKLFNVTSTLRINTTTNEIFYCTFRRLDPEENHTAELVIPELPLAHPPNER
T1 sequence (Q9NZQ7 19-238 limits assumed): as above
T3 sequence (Q9EP73 19-290): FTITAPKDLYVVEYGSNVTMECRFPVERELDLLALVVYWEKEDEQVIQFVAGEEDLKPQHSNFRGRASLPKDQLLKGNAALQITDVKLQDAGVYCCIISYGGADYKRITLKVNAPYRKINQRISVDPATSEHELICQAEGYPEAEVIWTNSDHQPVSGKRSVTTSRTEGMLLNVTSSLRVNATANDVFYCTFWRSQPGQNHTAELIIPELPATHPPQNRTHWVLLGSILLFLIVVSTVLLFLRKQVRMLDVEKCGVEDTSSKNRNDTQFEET
T2 sequence (Q9NZQ7 19-290): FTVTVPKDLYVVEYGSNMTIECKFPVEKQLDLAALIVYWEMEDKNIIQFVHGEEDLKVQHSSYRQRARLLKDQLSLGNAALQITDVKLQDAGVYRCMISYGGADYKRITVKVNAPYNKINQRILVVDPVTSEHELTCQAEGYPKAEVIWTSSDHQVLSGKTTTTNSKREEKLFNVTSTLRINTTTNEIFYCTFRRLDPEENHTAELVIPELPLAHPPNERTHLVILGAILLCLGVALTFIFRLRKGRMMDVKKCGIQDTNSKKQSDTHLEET
T6 sequence (Q9EP73 19-238 limits assumed): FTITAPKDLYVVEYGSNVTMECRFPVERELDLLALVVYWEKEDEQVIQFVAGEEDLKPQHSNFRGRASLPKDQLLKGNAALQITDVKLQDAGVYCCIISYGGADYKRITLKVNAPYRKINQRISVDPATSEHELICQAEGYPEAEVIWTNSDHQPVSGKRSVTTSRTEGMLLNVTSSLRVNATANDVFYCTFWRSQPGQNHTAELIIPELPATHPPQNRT

B1: PD-L1 antibody YN-039 (antibody, human IgG1, lambda, V domains shown)
VH: QVQLVQSGAEVKKPGSSVKVSCKASRGPFSTYAISWVRQAPGQGLEWMGRIIPILGIANYAQKFQGRVTITADKSTSTAYMELSSLRSEDTAVYYCARTMGEYSYGNYDYWGQGTLVTVSS
VL: QSALTQPASVSGSPGQSITISCTGTVSDVGGYNEVSWYQQHPGKAPKLMIYENSIRPSGVSHRFSGSKSGNTASLTISGLQAEDEADYYCQSYDSSLSGTVFGGGTKLTVLG
notes: full-length IgG1,lambda
The term Kd denotes the concentration at which binding is half-saturated. Broadly, the koff is a measure of how fast the partners let go of each other. In general, kon refers to a measure of how fast the partners come together. Usually EC50 (read off the curve) stands for the midpoint of the concentration-response curve. A lower EC50 (read off the curve) goes with greater potency. On to B1, for which, in experiment [1], the dissociation constant Kd turned out to be 0.485 nM. In addition, the koff in experiment [1] turned out to be 0.000173 s⁻¹. Further, the kon in [1] was found to be 356000 M⁻¹ s⁻¹. For the same molecule, the results for the “EC50 (read off the curve)” value in experiment [2] and in [3] were 3 to 4 nM and around 6 nM, respectively. In addition, the “IC50 (read off the curve)” value in experiment [4] is around 3 nM; in [5], around 4 nM.

B2: PD-L1 antibody YN-038 (antibody, human IgG1, lambda, V domains shown)
VH: B1 VH
VL: B1 VL with V26R
notes: full-length IgG1,lambda
For B2, in [1], the Kd was determined as 0.447 nM, the koff was 0.000156 s⁻¹ and the kon was 350000 M⁻¹ s⁻¹. Besides, in experiment [2], the “EC50 (read off the curve)” value lay within 3 to 4 nM. The “EC50 (read off the curve)” value in experiment [3] was around 6 nM. For the same molecule, the “IC50 (read off the curve)” value in experiment [4] was around 3 nM. Besides, the “IC50 (read off the curve)” value in experiment [5] was around 4 nM.

B3: PD-L1 antibody YN-037 (antibody, human IgG1, lambda, V domains shown)
VH: B1 VH
VL: B1 VL with V26S, D28S, N33R
notes: full-length IgG1,lambda
For the molecule B3, in [1], the Kd worked out at 0.382 nM, the off-rate (koff) worked out at 0.000136 s⁻¹ and the on-rate (kon) came out at 355000 M⁻¹ s⁻¹. For the same molecule, the “EC50 (read off the curve)” value in [2] fell in the range of 3 to 4 nM. Besides, the half-maximal effective concentration (EC50 (read off the curve)) in [3] is around 6 nM. The “IC50 (read off the curve)” value in experiment [4] is around 3 nM. Moreover, in experiment [5], the “IC50 (read off the curve)” value was around 4 nM.

B4: anti-PD-L1/CD137 bispecific antibody YN-051 (bispecific antibody, human IgG1, lambda, N297A)
heavy: not shown
light: QSALTQPASVSGSPGQSITISCTGTVSEVGGYNEVSWYQQHPGKAPKLMIYGNSNRPSGVSNRFSGSKSGNTASLTISGLQAEDEADYYCQSYDSSLSGTVFGGGTKLTVLGQPKAAPSVTLFPPSSEELQANKATLVCLISDFYPGAVTVAWKADSSPVKAGVETTTPSKQSNNKYAASSYLSLTPEQWKSHRSYSCQVTHEGSTVEKTVAPTECS
notes: First polypeptide (built from the YN-035 heavy chain and the YN-006 heavy and light chain genes) and second polypeptide (= YN-035 light chain); SDS-PAGE: about 200 kDa non-reduced, about 75 and 25 kDa reduced
Regarding B4, in experiment [6], the dissociation constant Kd was 0.517 nM, the koff was 0.000275 s⁻¹ and the on-rate (kon) turned out to be 532000 M⁻¹ s⁻¹. Also, in [7], the Kd was 1.64 nM, the koff stood at 0.000147 s⁻¹ and the on-rate (kon) is 89900 M⁻¹ s⁻¹. For the same molecule, the “EC50 (read off the curve)” value in experiment [8] was around 1 nM. In addition, the “IC50 (read off the curve)” value in [9] is around 5 nM. Also, the “IC50 (read off the curve)” value in experiment [10] was around 2 nM.

B5: anti-PD-L1/CD137 bispecific antibody YN-007 (bispecific antibody)
heavy: not shown
light: B4 light with V26S, E28D, E34Y, T100S
notes: First polypeptide (built from the YN-003 heavy chain and the YN-006 heavy and light chain genes) and second polypeptide (= YN-003 light chain); SDS-PAGE: about 200 kDa non-reduced, about 75 and 25 kDa reduced
With B5, in experiment [11], the Kd was 0.525 nM, the koff was determined as 0.000592 s⁻¹ and the kon came to 1.13e+06 M⁻¹ s⁻¹. For the same molecule, in [12], the Kd was found to be 1.34 nM, the dissociation rate constant (koff) turned out to be 0.00109 s⁻¹ and the kon was 810000 M⁻¹ s⁻¹.

B6: anti-PD-L1/CD137 bispecific antibody YN-052 (bispecific antibody, human IgG1, lambda, N297A)
heavy: not shown
light: B4 light
notes: First polypeptide (built from the YN-036 heavy chain and the YN-006 heavy and light chain genes) and second polypeptide (= YN-036 light chain); SDS-PAGE: about 200 kDa non-reduced, about 75 and 25 kDa reduced
Take B6: in [6], the equilibrium dissociation constant (Kd) stood at 0.572 nM, the dissociation rate constant (koff) was 0.000257 s⁻¹ and the kon worked out at 448000 M⁻¹ s⁻¹. In addition, in experiment [7], the dissociation constant Kd was found to be 2.08 nM, the koff is 0.000174 s⁻¹ and the kon was 83700 M⁻¹ s⁻¹. Besides, the “EC50 (read off the curve)” value in [8] is around 2 nM. In addition, in experiment [9], the “IC50 (read off the curve)” value is around 5 nM. Further, in [10], the “IC50 (read off the curve)” value was around 3 nM.

The values are drawn from patent publication US20210261677A1 (ORICELL THERAPEUTICS, published 2021).
